In paper PMC5243199 (Cancer research, 2016):
One block for each binder: values may come before it. Where no end group is shown, it is not given here.

B1: His-menin (natural protein, UniProt O00255-2 1-610, looked up)
chain: MGLKAAQKTLFPLRSIDDVVRLFAAELGREEPDLVLLSLVLGFVEHFLAVNRVIPTNVPELTFQPSPAPDPPGGLTYFPVADLSIIAALYARFTAQIRGAVDLSLYPREGGVSSRELVKKVSDVIWNSLSRSYFKDRAHIQSLFSFITGTKLDSSGVAFAVVGACQALGLRDVHLALSEDHAWVVFGPNGEQTAEVTWHGKGNEDRRGQTVNAGVAERSWLYLKGSYMRCDRKMEVAFMVCAINPSIDLHTDSLELLQLQQKLLWLLYDLGHLERYPMALGNLADLEELEPTPGRPDPLTLYHKGIASAKTYYRDEHIYPYMYLAGYHCRNRNVREALQAWADTATVIQDYNYCREDEEIYKEFFEVANDVIPNLLKEAASLLEAGEERPGEQSQGTQSQGSALQDPECFAHLLRFYDGICKWEEGSPTPVLHVGWATFLVQSLGRFEGQVRQKVRIVSREAEAAEAEEPWGEEAREGRRRGPRRESKPEEPPPPKKPALDKGLGTGQGAVSGPPRKPPGTVAGTARGPEGGSTAQVPAPTASPPPEGPVLTFQSEKMKGMKELLVATKINSSAIKLQLTAQSQVQMKKQKVSTPSDYTLSFLKRQRKGL
B2: His-Daxx (183–260) (domain or fragment, UniProt Q9UER7 183-260, looked up)
chain: GSRRQIQRLEQLLALYVAEIRRLQEKELDLSELDDPDSAYLQEARLKRKLIRLFGRLCELKDCSSLTGRVIEQRIPYR

Experiments:
GST-Daxx = GST-Daxx (UniProt Q9UER7 1-740); assay: pull-down
Sequence of GST-Daxx (Q9UER7 whole entry): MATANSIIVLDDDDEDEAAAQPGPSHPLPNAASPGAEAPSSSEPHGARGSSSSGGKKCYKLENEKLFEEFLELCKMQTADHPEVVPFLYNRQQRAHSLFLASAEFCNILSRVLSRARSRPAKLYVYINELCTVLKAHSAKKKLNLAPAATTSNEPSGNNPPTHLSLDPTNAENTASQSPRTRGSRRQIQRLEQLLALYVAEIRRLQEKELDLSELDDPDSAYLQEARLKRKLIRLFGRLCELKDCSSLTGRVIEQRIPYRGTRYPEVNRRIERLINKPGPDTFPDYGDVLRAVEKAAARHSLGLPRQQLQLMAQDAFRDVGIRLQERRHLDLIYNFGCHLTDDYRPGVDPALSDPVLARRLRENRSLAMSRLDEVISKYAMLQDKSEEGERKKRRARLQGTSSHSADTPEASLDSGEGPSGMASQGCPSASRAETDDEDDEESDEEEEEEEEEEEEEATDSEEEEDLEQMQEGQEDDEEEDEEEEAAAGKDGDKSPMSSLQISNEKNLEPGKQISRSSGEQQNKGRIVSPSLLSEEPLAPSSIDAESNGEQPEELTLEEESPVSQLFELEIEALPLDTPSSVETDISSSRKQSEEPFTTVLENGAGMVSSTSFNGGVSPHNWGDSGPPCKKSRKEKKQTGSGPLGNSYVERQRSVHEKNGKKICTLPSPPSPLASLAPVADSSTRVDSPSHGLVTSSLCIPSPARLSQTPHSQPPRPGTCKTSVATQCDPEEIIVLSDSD

His-Daxx (183–398) = His-Daxx (183–398) (UniProt Q9UER7 183-398); assay: pull-down
His-menin = biological target: B1; assay: co-IP

Binder: B1
binding result (GST-Daxx): binds

binding result (His-Daxx (183–398)): binds
Binder: GTCKWEEGSPTPVLHVGWATQSE (also: biotinylated) [biotinylated menin peptide GTCKWEEGSPTPVLHVGWATQSE]

Binder: B2
binding result (His-menin): binds
